Consider one protein from paper PMC5668897 (Biochemistry and Biophysics Reports, 2015).

The series concerns the molecule itself. Description: SEC.

B1: regulatory subunit of Thermotoga maritima acetohydroxyacid synthase (TmAHAS), TM0549 (natural protein)
chain: MTDQIREHLVSMLVHNKPGVMRKVANLFARRGFNISSITVGESETPGLSRLVIMVKGDDKTIEQIEKQAYKLVEVVKVTPIDPLPENRVEREMALIKVRFDEDKQEIFQLVEIFRGKIIDVSREGAIIEITGARSKVEAFINLLPQKQVEEIARTGIVAMNRWNVKEGEGF
In the case of B1, the “stoichiometry N” value came out at 2.
